Test results as given in patent US20180086823A1 (FRAUNHOFER GESELLSCHAFT ZUR FOERDERUNG DER ANGEWANDTEN …, published 2018).
Where two headings read alike, the source gives them in different places.

Key:
[1] = molecular target: T1, recombinant apical membrane antigen 1 (AMA-1) from Plasmodium falciparum 3D7, produced in Pichia pastoris, … (Plasmodium falciparum (strain 3D7), UniProt P22621 25-546); assay: SPR, Biacore T200, protein-A capture of the antibody, 25° C., 1:1 Langmuir fit
T1 construct: also called native target antigen AMA-1; recombinant AMA-1
T1 chain: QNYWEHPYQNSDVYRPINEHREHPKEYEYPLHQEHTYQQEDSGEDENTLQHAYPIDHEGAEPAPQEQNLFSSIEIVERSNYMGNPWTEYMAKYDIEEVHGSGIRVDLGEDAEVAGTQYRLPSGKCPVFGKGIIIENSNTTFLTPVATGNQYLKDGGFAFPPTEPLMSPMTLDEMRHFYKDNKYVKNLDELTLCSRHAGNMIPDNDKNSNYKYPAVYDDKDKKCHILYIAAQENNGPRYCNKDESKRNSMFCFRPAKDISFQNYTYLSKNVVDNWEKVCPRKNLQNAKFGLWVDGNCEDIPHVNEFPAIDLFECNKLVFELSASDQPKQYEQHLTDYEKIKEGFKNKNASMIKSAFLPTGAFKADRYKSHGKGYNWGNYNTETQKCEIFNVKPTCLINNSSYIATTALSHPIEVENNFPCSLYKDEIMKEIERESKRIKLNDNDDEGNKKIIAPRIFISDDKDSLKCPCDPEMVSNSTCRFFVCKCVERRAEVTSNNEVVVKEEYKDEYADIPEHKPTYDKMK
Description: All antibodies were diluted into running buffer to yield equivalent capture levels. The injection time was set to 180 s and dissociation was recorded for 600 s. The protein-A surface was regenerated by a 30 s pulse with 30 mM HCI. For the antibody buffer injections were used for double referencing. Values for the KD of the antibody were calculated according to the curve-fitting methodology for a simple binding model (1:1 Langmuir).

[2] = molecular target: T2, AMA-1 of Plasmodium falciparum strain 3D7, on parasites (schizonts/merozoites) (Plasmodium falciparum (strain 3D7), UniProt P22621 25-622); assay: cell-based or functional assay
T2 chain: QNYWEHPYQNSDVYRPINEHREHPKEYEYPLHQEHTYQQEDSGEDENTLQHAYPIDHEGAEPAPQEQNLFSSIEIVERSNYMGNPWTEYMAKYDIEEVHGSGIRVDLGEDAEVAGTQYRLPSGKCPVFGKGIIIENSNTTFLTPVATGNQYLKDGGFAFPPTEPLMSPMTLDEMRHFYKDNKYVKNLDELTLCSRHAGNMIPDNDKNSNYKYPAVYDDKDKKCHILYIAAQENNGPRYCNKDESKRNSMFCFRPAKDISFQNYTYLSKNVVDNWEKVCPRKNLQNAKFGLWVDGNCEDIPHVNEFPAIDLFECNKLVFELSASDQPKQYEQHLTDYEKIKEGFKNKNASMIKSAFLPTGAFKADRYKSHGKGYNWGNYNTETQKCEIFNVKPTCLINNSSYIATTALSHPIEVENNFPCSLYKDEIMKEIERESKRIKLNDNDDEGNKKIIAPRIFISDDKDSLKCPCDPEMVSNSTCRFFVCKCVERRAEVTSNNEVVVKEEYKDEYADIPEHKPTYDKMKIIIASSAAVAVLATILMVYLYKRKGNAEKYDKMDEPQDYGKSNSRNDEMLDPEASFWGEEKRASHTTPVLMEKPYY

[3] = molecular target: AMA-1 of Plasmodium falciparum strain FCR3, on parasites (Plasmodium falciparum (strain FCR3)); assay: cell-based or functional assay
[4] = molecular target: T2, AMA-1 of Plasmodium falciparum strain …; assay: cell-based or functional assay
[5] = molecular target: AMA-1 of Plasmodium falciparum strain K1, on parasites (Plasmodium falciparum (strain K1)); assay: cell-based or functional assay
[6] = molecular target: AMA-1 of Plasmodium falciparum strain HB3, on parasites (Plasmodium falciparum (strain HB3)); assay: cell-based or functional assay

B1: huMAb-anti-AMA-1.1 (antibody, V domains shown)
VH: QVQLQESGPGLVKPSETLSLTCSVSGVSVSSTVFYWGWIRQSPGKGLEWIGSIYYSGSTYYNEALKSRLTLSVETSERQFSLRLSSVTAADTAVYYCARGAINFGGYSGPGTFYFDIWGQGTLITVSS
VL: DIQMTQSPSTLSASVGDRVTITCRASQSITTWLAWYQQKPGTAPKLLIYKASILETGVPSRFSGSGSGTDFTLTISSLQPDDFATYYCQQYSTHLFTFGPGTKVDIK
notes: also called recombinant human anti AMA-1 antibody
Kd [1]: 0.188 nM
koff [1]: 0.000131 s⁻¹
kon [1]: 698000 M⁻¹ s⁻¹
IC50 [µg/ml], growth inhibition assay (GIA), strain 3D7 [2]: 32 µg/mL
IC50 [µg/ml], growth inhibition assay (GIA), strain FCR3 [3]: 230 µg/mL
IC50 [µg/ml], growth inhibition assay (GIA), strain 3D7 [4]: 32 µg/mL
IC50 [µg/ml], growth inhibition assay (GIA), strain K1 [5]: 113 µg/mL
IC50 [µg/ml], growth inhibition assay (GIA), strain HB3 [6]: 115 µg/mL
